The target in data set [1] is H-NS C-terminus (84–137) (Salmonella typhimurium) (UniProt P0A1S2). The data set can be described thus: MST; 20 nM NT-647-labelled H-NS C-terminus, serial dilutions of the unlabelled partner; 50 mM Tris-HCl, 50 mM NaCl, 2 mM MgCl2, 0.005% Tween-20; 30 min incubation; single-binding-site fit; also repeated at 100, 250, 500 and 1000 mM NaCl.
The target of data set [2] is H-NSΔs2 with an N-terminal mCherry fusion (mChH-NSΔs2) (Salmonella typhimurium) (UniProt P0A1S2). The data set can be described thus: dynamic light scattering; hydrodynamic radius against temperature, 5 to 60°C; protein at 125 to 500 μM; 150, 250 or 500 mM NaCl; pH 6, 7 or 8 (100 mM MES, MOPS or HEPES).
Data set [3] deals with H-NS C-terminal region 84-137. The data set is described as follows: MST. To be noted: MST: 50 mM Tris-HCl, 50 mM NaCl, 2 mM MgCl2, 0.005% Tween-20, pH not stated; anisotropy: 20 mM HEPES pH 7.5, 50 mM NaCl, 2 mM MgCl2, 25 or 37 C, 20 nM DNA.
Data set [4] concerns H-NS full length (H-NSFL). The data set can be described thus: fluorescence anisotropy. To be noted: 25 C, 50 mM NaCl, 2 mM Mg2+, MST: 50 mM Tris-HCl, 2 mM MgCl2, 0.005% Tween-20, pH not stated, anisotropy: 20 mM HEPES pH 7.5, 50 mM NaCl, 2 mM MgCl2, 25 or 37 C, 20 nM DNA.
Data set [5] relates to H-NS full length (H-NSFL). The data set is described as follows: MST. To be noted: room temperature (25 C), 50 mM NaCl, 2 mM Mg2+, MST: 50 mM Tris-HCl, 2 mM MgCl2, 0.005% Tween-20, pH not stated, anisotropy: 20 mM HEPES pH 7.5, 50 mM NaCl, 2 mM MgCl2, 25 or 37 C, 20 nM DNA.
Data set [6] deals with the molecule itself. The data set can be described thus: SAXS; H-NS 2-57,C21S in solution at 1-4 mg/ml, 10 to 42°C and a range of salt and buffer conditions (150 mM NaCl, 1 mM EDTA, 20 mM Tris pH 7.5 in Figure 2B); patterns compared with parallel and antiparallel site1 dimer models.

Five molecules from publication PMC6411929, “H-NS uses an autoinhibitory conformational switch for environment-controlled gene silencing” (Nucleic Acids Research, 2018) can be followed below.

For “H-NS N-terminus (2–57), unlabelled, pET-M construct with N-terminal His6-tag (from UniProt P0A1S2 2-57) (domain or fragment)”, the Kd in data set [1] turned out to be 4.1 µM.
“H-NSΔs2 with an N-terminal mCherry fusion (mChH-NSΔs2) (from UniProt P0A1S2 1-137) (natural protein)” registered a stoichiometry N in data set [2] of 2.
13 bp AT-rich DNA yielded a dissociation constant (Kd) in data set [3] of 14.5 µM.
Turning to “101 bp DNA with four consensus H-NS motifs”, the Kd in data set [4] is 10.2 µM; in data set [5], 7.4 µM.

B1: Salmonella typhimurium H-NS_(2–57,C21S) (domain or fragment)
chain: SEALKILNNIRTLRAQARESTLETLEEMLEKLEVVVNERREEESAAAAEVEERTRK
notes: H-NS, Salmonella typhimurium, residues 2-57 (site1) with C21S
As to B1, in data set [6], the “stoichiometry N” value was found to be 2.
